Measurements from publication PMC3332085.
Where two headings read alike, the source gives them in different places.

Legend:
Experiment in all cases: SAXS
[1] = target: wild type yeast frataxin (Yfh1wt; residues 52-174) (S. cerevisiae) (UniProt Q07540)
[2] = target: wild type yeast frataxin (Yfh1wt; residues 52-174) (S. cerevisiae) (UniProt Q07540); remark: listed apart in the source
[3] = target: wild type yeast frataxin (Yfh1wt; residues 52-174) (S. cerevisiae) (UniProt Q07540); remark: listed apart in the source

Q: “wild type yeast frataxin (Yfh1wt; residues 52-174) (from UniProt Q07540 52-174) (natural protein)” was tested. Which distribution, hexamer [1] did it give?
A: 13%

Q: What about the distribution, monomer [1] of the same substance?
A: 54%

Q: What about the distribution, trimer [1] of the same substance?
A: 33%

Q: What about the distribution, 42-mer [2] of the same substance?
A: 11%

Q: What about the distribution, hexamer [2] of the same substance?
A: 6%

Q: What about the distribution, monomer [2] of the same substance?
A: 26%

Q: What about the distribution, trimer [2] of the same substance?
A: 57%

Q: And the distribution, hexamer [3]?
A: 9%

Q: What about the distribution, monomer [3] of the same substance?
A: 67%

Q: And the distribution, trimer [3]?
A: 24%

Q: What about the stoichiometry N [3] of the same substance?
A: 2
